Reference: the DeepSol protein solubility set

Test: soluble on expression in E. coli; label from the status in PepcDB or PDB records

Sequence | soluble on expression in E. coli
MSNSDDEIQEIEAKRQKMSQEDSEVEIEILDEPEQGKLKNSSMSDEQKLHEFAIITATDEAFAQSILQDVDWDLKKALDVFYGSEAFAEARSAAVMGASSSMASSGAAVMTAEDLKGFEVSVMSWNIDGLDGRSLLTRMKAVAHIVKNVNPDILFLQEVVDRDLAPIDKLQSLYKIYYSNKGCQYYTAILVSKMFDVEKHDVIHFQNSGMYRTLQILEGSIGGLKVFLLNTHLESTREHRPQRCAQFGFCMDKVREIIAQNPGALVFFGGDLNLRDEEVSRVPDGVKDAWEAAGSDNKTKFTWDTFKNDNKQGFHGAKMRFDRLYWSGPLDKVKFTLEGRQRIRSCLCFPSDHWAINATFFA | not soluble
MFQQLSARLQEAIGRLRGRGRITEEDLKATLREIRRALMDADVNLEVTRDFVERVREEALGKQVLESLTPAEVILATVYEALKEALGGEARLPVLKDRNLWFLVGLQGSGKTTTAAKLALYYKGKGRRPLLVAADTQRPAAREQLRLLGEKVGVPVLEVMDGESPESIRRRVEEKARLEARDLILVDTAGRLQIDEPLMGELARLKEVLGPDEVLLVLDAMTGQEALSVARAFDEKVGVTGLVLTKLDGDARGGAALSARHVTGKPIYFAGVSEKPEGLEPFYPERLAGRILGMGDVASLAEKVRAAGLEAEAPKSAKELSLEDFLKQMQNLKRLGPFSEILGLLPGVPQGLKVDEKAIKRLEAIVLSMTPEERKDPRILNGSRRKRIAKGSGTSVQEVNRFIKAFEEMKALMKSLEKKKGRGLM | soluble
MGSSHHHHHHGGTGENLYFQGGSGMKGVTSFTVYGLVPAADFQRCAEAAAYVNDKYPESYAVIVKLELPRDFAERRAAWASAGHLPSQQQQPTDASFGESGGSATTASTAAAELAAVLVEQHGSDSEPQCLLTAETFLHNIATHTDYKPDATEDYYTARGKRAWRAFLASRGRQYCWMDVSVDGVAVGRVWFELYASVAPLTCKNFCELCRGTTVAMGDTVAHSSVFDPPPAQHIGYKGTTFFRTLKDAWVMGGDVTGAHSGNGGYSCYGRCFPDETYAVPHDAAGILGMCNDGPHTSSSAFYITLRPMSWMNGKYVAFGRVMDGMHVVDAIHAVEARHNQAPKASIVITDCDVLDTSV | soluble
METHLGWARSLEAVLSDRSALDAFQEWLIEYSSPQYLDLFFAIRAYERMALEGKPEKSQLSKSIYSKFLSSRTGNCEAIPKHFRAPIGEKLRHGTELEDRVFSHCSNFVQEFLRRQHEEFVGSEEFIEAFNKMSSTTADQLPGGSAHHSSHQNTMRRSSGTTSRKSAAQIATQLTAEALLKSKHDRHSKLGETKLEKMYPPTRQPYVCNATTSHNDSAVSSTFSGDTPEAHRMHSNRLRHIRDEQARENHGTMTLPRVEKASVDGQQWDHSSESGRRNFAMEITRKLLRHIDKVKLNDEMEKRIDDIEECRYTTIDMVNGTEPNDDLGKIDEDEELDDYLKMKMTDDSQKGSTNRSPKGPAGEPNKSGEGSKNTTLSPTNRAPAQLHNTIRVPRRKDYPRDTSASLKSHRHHQIDTNRMMSQSMCAPSYSSASSSYSRDSFAPAPTTRVNFAPGSSKSSQFYDSSGIGSMAPSAFSATSSLDYKDRRQHRKAPTPKKHSKIGKNLSNLITISYLGTDKIPVVTHVPNDGPMTLAEFKRHFALPNGAHQLFFKTECEDGSAPFQLLLIKDEHHLLPVFEGRIAAELR | not soluble
MSLNRQSKAAVPALREISPVKQQVSEEKKEIQEDSSILVDLKGAVQKEGVYKLTASSRVRDVIELAGGLTSEADKHAINFAEKLTDEQVVYVPKQGEEISVLPRSLVSGKKETASKDQSKVHINKASLEELQHIPGIGAKRAQDIIDMRDKLGGFKALEDLRQVSGIGEKTLEKLKDDIFLDEGHHHHHH | soluble
MGSDKIHHHHHHMHLSINLLPILSQHQVSFNTDIYCLEKFMFQIDTLIAAKIVDRTMKIIGHNINVMNAQAVILGSGDIDRIGTVHEGALLAISQNRNVEISQAIASNLHGVKPGLNLPLHYHGQVVGVIGITGEPDTLSHYGELLKMTAEMIVEQANLQEQLQWQNRQTEEFISQLIHANEQDLPSLQQWALQLGIDLSVPRVAAIIELDSNNPLYQQDNQALKQVLYLLQNPVRDNLIAMTSLTQLVILKPAFLDGKQFDPELENQRINKLLKRLPANMQLSLHISLGHYFGGELGISYSYRTAKETLDIGKKLHPTKTKYLYQDYSLQVLLSGLRHHWRGNALAGPYLKLIEVDNNQQLQKTLAAYLDHMGDIQACANSLFIHRNTLRYRLDKIQTITNIDLRSFNGLLSLYLGQLIHQPST | not soluble
MTSYEEETDYRNVPRELLDNNIPMGRGMIKWAPFATLPEQFETIQQYIIDQNKITRPVLSDDQLAELNIRLHEALQYAQPVEVKFYNNGFVDSVRLTIYRIDAINYEIDGYVYNQQQRQKISIFDILDIVLLPLEHHHHHH | soluble
MTVIYQTTITRIGASAIDALSDQMLITFREGAPADLEEYCFIHCHGELKGALHPGLQFSLGQHRYPVTAVGSVAEDNLRELGHVTLRFDGLNEAEFPGTVHVAGPVPDDIAPGSVLKFESVKE | not soluble
MAISDGRTGNTRQAEALASTLVGSLYTTQVLKPRIPWRWTAPYCLPGAKHAFGTTFSHALRYPPFLAIGCGRQAALATRLLHKQGACVVQILDPRLPARHWDLLVVPEHDHIRGHNVLTLLGSLHPVNDVWLATGRAQFPELGDLPGQRVALLVGAPTPQAPWQPAQLEELCTALVKGLSCGGSVLATTSRRTPPELATQLRKHLATIPGLFWNNTDKGANPYPGILGWADAIIATADSVNLLSEACATRAPVTAAFANQTRGRIRCFIDALGARLCTVENLLAIDTLAQPLRETERIANEVRAWFGMV | not soluble
MQMKRTAFFISDGTGITAETLGQSLLAQFENISFVKLTRPYIDTEEKARAMVQQINNAAESDGARPIIFDTIVNRDIRAVLAQSNGFMIDIFATFLSPLEQELSADSSYSVGKSHSIGHNSNYMDRIEAVNFALDNDDGARTHYYDKADLILVGVSRCGKTPTCLYMALQYGIRAANYPLTEEDMERLQLPNALKQYKHKLFGLTIDPDRLTAIRNERKPNSRYASFAQCEFEVREVESLFRRENIAYINSTHFSVEEISAKILVEKGVERRFKLEHHHHHH | not soluble
MRAWPIHLHVGSIERSSALLVGGCNVVYGLSSHEKSNVGFGEVGSQSWIAQNRVLLFDPDGIDMPVDDRDMHVLQTRQQAPIDTRIAFQGLGVNSMQQNAGVFVGDAQITGWDQHQKSNKASGDIGGDHNVEIAGLHVNYDADGMDGVFLDSDHKAGTFVRQG | not soluble
MGSDKIHHHHHHMVNQGVDISVIAPQSITRHLLKGDPLLAVDSEKKIGNRSYHIYRPKYLTLGNAPRWIQNILEWLRYKVILRVITKHNLKPDAIYGHFWQNAFDIRKYCYKNGTPLFVACGEGDTALEDLVNSLSFAEKKRLSNAVTGVISVSSLNKRKCIEYGLSKAEDIVVLPNSVNSSLFSDINPLNRNSLGVFDDDFLIVFTGGFIHRKGASRLAAAIDKIGDKRIKVIFIGKPVPGDDATPHCNGIVHIGALEHDDIPSYLSAADVFCLPTLNEGCSNAIVEAIACGLPIISSNLPFNDDILDSSNALLVNPESVDDIASAIKQLMDNSDLRQKLAEGSKEKAKSLRIEFRAKKIIEFINRQMQK | not soluble
MEKELKALTKRLQQYNEQLLLIARRARERNEEPDFFGDVKPMAEEVQAVAERWKDAASRWVRHARPKYVHERQIEAAADHMAKLCVEAFYPSVPERRIKQYSQAVAYTLALVKERLDDTSEAGKERL | not soluble
MEILNQFSQFSPNMEAQGASSIPQPSQDAHEKARQQAENQETAKNGMISQILDQAAMQRLSNLAVAKPEKAQMVEAALINMARRGQLSGKMTDDGLKALMERVSAQTQKATSVKFDRRRNELDSDEELDL | not soluble
MSLYIKVLSVSELNNYIKRVVDSDYILSNAQVKGEISNFKFHSSGHVYFSLKDEGGKINCIMFRSNAEKLKFIPENGMKVNVKGRVSVYVKDGAYQLYCTEITPEGRGELYEAFEKLKEKLLNEGMFSEEHKRNIPKYPKMIGVITSPTGAAIRDIINVATRRNKSVDMIICPTLVQGVNAPGELIKALDYLNNREDIDTIILARGGGSIEELWAFNDEKLAYAVYNSKKPVVTGVGHETDFTIVDFVSDRRAPTPSAAAEIAVPNINEEMNSFVSLKRALDTSIKTYIQNKCNQLEIAKRMLEKNSPEILIVNGYSSIDNFKYVLDMRIANKIKIEKEKILRYNSILKSNSPINILNKGYSIISDEIGNNISNVDKLKEPDKVHITFKDGKVNAKIDILREGHHHHHH | soluble
MSLKPLHYTASALALGLALMGNAQAVTTIPFWHSMEGELGKEVDSLAQRFNAENPDYKIVPTYKGNYEQNLSAGIAAFRTGNAPAILQVYEVGTATMMASKAIKPVYDVFKEAGIQFDESQFVPTVSGYYSDSKTGHLLSQPFNSSTPVLYYNKDAFKKAGLDPEQPPKTWQDLADYAAKLKASGMKCGYASGWQGWIQLENFSAWNGLPFASKNNGFDGTDAVLEFNKPEQVKHIAMLEEMNKKGDFSYVGRKDESTEKFYNGDCAMTTASSGSLANIREYAKFNYGVGMMPYDADAKDAPQNAIIGGASLWVMQGKDKETYTGVAKFLDFLAKPENAAEWHQKTGYLPITKAAYDLTREQGFYEKNPGADTATRQMLNKPPLPFTKGLRLGNMPQIRVIVDEELESVWTGKKTPQQALDTAVERGNQLLRRFEKSTKSEGGSHHHHHH | soluble
MASSAVSLQSISMTTLNNLSCNQQFHRSSLLGSSKSFQNLGISSNGSDFSYPSSFTAKKNLTASRALSQNGNIENPRPSKVQELSVYEINELDRHSPKILKNAFSLMFGLGDLVPFTNKLYTGDLKKRVGITAGLCVVIEHVPEKKGERFEATYSFYFGDYGHLSVQGPYLTYEDSFLAITGGAGIFEGAYGQVKLQQLVYPTKLFYTFYLKGLANDLPLELTGTPVPPSKDIEPAPEAKALEPSGVISNYTN | soluble
MMLRSHPNTLHITKLSHSAIHQLAPSFAQLPHTNHADGQYRLRRYSVIRFIDGQVVELDKHDFMQTDQINHFQGNVVRRFEPLLSTTLKSDGMRELCALFMEANTLPDGQEIEIHQMRIAAVFDETLVAPEGVHQDGFDHIAIVGIDRYNIVGGEIMLYLSSHEAPFFRKVLENGEVAMLADSQLWHNACPIRTVDHQQEGHMDVFVLTAKDGRHALHS | not soluble
MSLRLKTILLTTMATGSFLCEPVAAMCIEPPATPDMGWFLKKKKKSNPQDSIKVKNEYEKLTGSDSVVRRGMFNVYQKKNDYYFEIPSTLLERDMLVVNKLQRVPAELNEAGVNRGTNYENQMIRFELDKSANKLLIRQSRPLPISPSEDAISQSVKDNYISPLIAGFKVEAYNNDSTSILIKVNDIYDGTETSINNVFTNINLGTSAIKNLSRILSIKSFDNNVVATSELTTRVTEGTTTIYVTVEVSSSILLLPEVPMTGRLDNPRVGYFTNPLTNFSDGQQRVNKKQFITRWRLEPRPEDRAAYLRGELVEPRKPIVFYIENSTPYRWRKYIKQGIEDWQVAFERAGFKNAIIAKDITEDMEVDMDDVNYSVLTYAASTKANAMGPSILDPRSGEILEADIMWWHNVLSMLQEWITVQTGVVRPEAREGHHHHHH | not soluble
